{"source": "the supplement of paper PMC10126150", "note": "± gives the standard deviation of the averaged measurements.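 Note: ATP exposure 15 min at 22 °C before imaging.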", "data": [{"test_system": "ATP", "experiment": "switch fluorescence ratio, 500 uM ATP over buffer (Cy3 cluster intensity, sum of 5 cycles each) (fold (ratio)); higher = stronger signal-on switching upon ATP binding; sequences stand for … in TCGTCGGCAGCGTCAGATGTGTATAAGAGACAGTTTTTTTTTTTTTTTTTTTTTTTTT…TC", "conditions": "aptamer strand: ATP DNA aptamer (quencher-CACCTGGGGGAGTATTGCGGAGGAAGG + anchor), 100 nM annealed; ATP concentration: 500 uM", "in_short": "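Imaging in selection buffer was followed by imaging after 15 min with 500 uM ATP at 22 °C, for Cy3-labelled switching-strand clusters annealed to 100 nM quencher-labelled ATP aptamer on a modified Illumina MiSeq flow-cell. Five of these buffer/ATP cycles ran, separated by NaOH stripping and re-annealing. The fluorescence ratio per cluster is summed target-cycle over summed buffer-cycle Cy3 intensity, averaged per switch-domain sequence; clusters outside 100-1000 RFU were removed.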", "values": [{"sequence": "TTTCAGAAAG", "switch fluorescence ratio": "0.986 ± 0.011"}, {"sequence": "TTTCAGACAT", "switch fluorescence ratio": "1.016 ± 0.008"}, {"sequence": "TTTCAGAGAA", "switch fluorescence ratio": "1.04 ± 0.049"}, {"sequence": "TTTCAGAGGG", "switch fluorescence ratio": "0.992 ± 0.011"}, {"sequence": "TTTCAGCCGG", "switch fluorescence ratio": "1.04 ± 0.034"}, {"sequence": "TTTCAGGGTT", "switch fluorescence ratio": "1.03 ± 0.072"}, {"sequence": "TTTCAGTCAT", "switch fluorescence ratio": "0.978 ± 0.015"}, {"sequence": "TTTCAGTTTT", "switch fluorescence ratio": "1.1 ± 0.22"}, {"sequence": "TTTCATGATG", "switch fluorescence ratio": "0.998 ± 0.02"}, {"sequence": "TTTCATGGCG", "switch fluorescence ratio": "0.97893 ± 0.0002"}, {"sequence": "TTTCATTAAA", "switch fluorescence ratio": "0.994 ± 0.033"}, {"sequence": "TTTCATTACT", "switch fluorescence ratio": "1.04 ± 0.065"}, {"sequence": "TTTCATTTAT", "switch fluorescence ratio": "0.986 ± 0.021"}, {"sequence": "TTTCATTTCT", "switch fluorescence ratio": "1 ± 0.018"}, {"sequence": "TTTCCAAAAT", "switch fluorescence ratio": "0.991 ± 0.026"}, {"sequence": "TTTCCAGACT", "switch fluorescence ratio": "0.968 ± 0.019"}, {"sequence": "TTTCCATAAG", "switch fluorescence ratio": "1.007 ± 0.0022"}, {"sequence": "TTTCCATTAT", "switch fluorescence ratio": "1.01 ± 0.058"}, {"sequence": "TTTCCATTTT", "switch fluorescence ratio": "1.02 ± 0.074"}, {"sequence": "TTTCCCGAGG", "switch fluorescence ratio": "1.51 ± 0.55"}, {"sequence": "TTTCCGGTGC", "switch fluorescence ratio": "1.7 ± 0.13"}, {"sequence": "TTTCCTCTCG", "switch fluorescence ratio": "1.54 ± 0.76"}, {"sequence": "TTTCCTTTTT", "switch fluorescence ratio": "1.15 ± 0.36"}, {"sequence": "TTTCGAATTC", "switch fluorescence ratio": "1.006 ± 0.0084"}, {"sequence": "TTTCGACAAG", "switch fluorescence ratio": "1.07 ± 0.1"}, {"sequence": "TTTCGAGCGT", "switch fluorescence ratio": "1.01 ± 0.029"}, {"sequence": "TTTCGCGGTC", "switch fluorescence ratio": "1.9 ± 1.1"}, {"sequence": "TTTCGGAGCC", "switch fluorescence ratio": "1.16 ± 0.24"}, {"sequence": "TTTCGGCGGT", "switch fluorescence ratio": "1.02 ± 0.021"}, {"sequence": "TTTCGGGGAA", "switch fluorescence ratio": "1.06 ± 0.1"}, {"sequence": "TTTCGGGGGG", "switch fluorescence ratio": "1.02 ± 0.037"}, {"sequence": "TTTCGGTCAC", "switch fluorescence ratio": "0.983 ± 0.0036"}, {"sequence": "TTTCGGTCGT", "switch fluorescence ratio": "1.03 ± 0.074"}, {"sequence": "TTTCGGTTAT", "switch fluorescence ratio": "1.02 ± 0.021"}, {"sequence": "TTTCGGTTTG", "switch fluorescence ratio": "1.02 ± 0.047"}, {"sequence": "TTTCGTACTC", "switch fluorescence ratio": "1.09 ± 0.13"}, {"sequence": "TTTCGTATGT", "switch fluorescence ratio": "0.997 ± 0.05"}, {"sequence": "TTTCGTCATC", "switch fluorescence ratio": "1.66 ± 0.91"}, {"sequence": "TTTCGTTTCT", "switch fluorescence ratio": "1.03 ± 0.024"}, {"sequence": "TTTCTAGTTT", "switch fluorescence ratio": "0.984 ± 0.026"}, {"sequence": "TTTCTATGGT", "switch fluorescence ratio": "1.003 ± 0.0073"}, {"sequence": "TTTCTCAGTT", "switch fluorescence ratio": "0.977 ± 0.02"}, {"sequence": "TTTCTCGTTT", "switch fluorescence ratio": "1.006 ± 0.0072"}, {"sequence": "TTTCTGCAGT", "switch fluorescence ratio": "1.27 ± 0.38"}, {"sequence": "TTTCTTATTC", "switch fluorescence ratio": "0.983 ± 0.022"}, {"sequence": "TTTCTTATTT", "switch fluorescence ratio": "1 ± 0.013"}, {"sequence": "TTTCTTCCCT", "switch fluorescence ratio": "1.13 ± 0.11"}, {"sequence": "TTTCTTCTTT", "switch fluorescence ratio": "1.02 ± 0.044"}, {"sequence": "TTTCTTGCGG", "switch fluorescence ratio": "1.012 ± 0.0019"}, {"sequence": "TTTCTTGTCT", "switch fluorescence ratio": "1.01 ± 0.035"}, {"sequence": "TTTCTTTCTT", "switch fluorescence ratio": "1.05 ± 0.083"}, {"sequence": "TTTCTTTGGG", "switch fluorescence ratio": "0.998 ± 0.043"}, {"sequence": "TTTCTTTGGT", "switch fluorescence ratio": "1.016 ± 0.0075"}, {"sequence": "TTTGAAACCA", "switch fluorescence ratio": "1.01 ± 0.024"}, {"sequence": "TTTGAAATAT", "switch fluorescence ratio": "1.01 ± 0.013"}, {"sequence": "TTTGAAGCAA", "switch fluorescence ratio": "4.2 ± 3.2"}, {"sequence": "TTTGAAGCCG", "switch fluorescence ratio": "0.989 ± 0.024"}, {"sequence": "TTTGAAGCTA", "switch fluorescence ratio": "2.19 ± 1.9"}, {"sequence": "TTTGAATATT", "switch fluorescence ratio": "0.991 ± 0.036"}, {"sequence": "TTTGACAGGG", "switch fluorescence ratio": "1.02 ± 0.014"}, {"sequence": "TTTGACAGTA", "switch fluorescence ratio": "1.07 ± 0.061"}, {"sequence": "TTTGACCGGA", "switch fluorescence ratio": "1.02 ± 0.072"}, {"sequence": "TTTGACGATT", "switch fluorescence ratio": "1 ± 0.049"}, {"sequence": "TTTGACGCGT", "switch fluorescence ratio": "1.02 ± 0.016"}, {"sequence": "TTTGACGGGT", "switch fluorescence ratio": "1.02 ± 0.029"}, {"sequence": "TTTGACGTGC", "switch fluorescence ratio": "1.02 ± 0.033"}, {"sequence": "TTTGACTAAG", "switch fluorescence ratio": "1.06 ± 0.099"}, {"sequence": "TTTGAGAATT", "switch fluorescence ratio": "1.01 ± 0.032"}, {"sequence": "TTTGAGAGGT", "switch fluorescence ratio": "1.05 ± 0.03"}, {"sequence": "TTTGAGATAG", "switch fluorescence ratio": "1.02 ± 0.012"}, {"sequence": "TTTGAGATGT", "switch fluorescence ratio": "1.04 ± 0.0048"}, {"sequence": "TTTGAGCCAC", "switch fluorescence ratio": "1.05 ± 0.0095"}, {"sequence": "TTTGAGGACA", "switch fluorescence ratio": "1.01 ± 0.012"}, {"sequence": "TTTGAGGAGC", "switch fluorescence ratio": "1.035 ± 0.0028"}, {"sequence": "TTTGAGGGCG", "switch fluorescence ratio": "1.01 ± 0.066"}, {"sequence": "TTTGAGGGCT", "switch fluorescence ratio": "1.006 ± 0.0023"}, {"sequence": "TTTGAGGTAG", "switch fluorescence ratio": "0.98 ± 0.019"}, {"sequence": "TTTGAGGTGG", "switch fluorescence ratio": "1.03 ± 0.043"}, {"sequence": "TTTGAGTCAT", "switch fluorescence ratio": "0.9713 ± 0.0092"}, {"sequence": "TTTGAGTTTG", "switch fluorescence ratio": "1.009 ± 0.0056"}, {"sequence": "TTTGATAATT", "switch fluorescence ratio": "1.07 ± 0.15"}, {"sequence": "TTTGATACAG", "switch fluorescence ratio": "1.012 ± 0.0071"}, {"sequence": "TTTGATATTG", "switch fluorescence ratio": "0.994 ± 0.038"}, {"sequence": "TTTGATCGCT", "switch fluorescence ratio": "1.28 ± 0.46"}, {"sequence": "TTTGATTAAT", "switch fluorescence ratio": "0.987 ± 0.011"}, {"sequence": "TTTGATTCGG", "switch fluorescence ratio": "0.983 ± 0.017"}, {"sequence": "TTTGATTGGA", "switch fluorescence ratio": "1.02 ± 0.011"}, {"sequence": "TTTGATTGGG", "switch fluorescence ratio": "1.01 ± 0.037"}, {"sequence": "TTTGATTGTT", "switch fluorescence ratio": "0.97 ± 0.043"}, {"sequence": "TTTGCAAAAA", "switch fluorescence ratio": "1.06 ± 0.082"}, {"sequence": "TTTGCAAGGA", "switch fluorescence ratio": "1.02 ± 0.045"}, {"sequence": "TTTGCAATG", "switch fluorescence ratio": "2.22 ± 1.6"}, {"sequence": "TTTGCAGTTC", "switch fluorescence ratio": "1.3 ± 0.32"}, {"sequence": "TTTGCATTCT", "switch fluorescence ratio": "1.004 ± 0.0078"}, {"sequence": "TTTGCCAAAA", "switch fluorescence ratio": "1.14 ± 0.23"}, {"sequence": "TTTGCCGAGG", "switch fluorescence ratio": "1.01 ± 0.015"}, {"sequence": "TTTGCCGTTC", "switch fluorescence ratio": "1.01 ± 0.042"}, {"sequence": "TTTGCCTTGC", "switch fluorescence ratio": "1.11 ± 0.067"}, {"sequence": "TTTGCCTTGG", "switch fluorescence ratio": "1.02 ± 0.018"}, {"sequence": "TTTGCGACGT", "switch fluorescence ratio": "1.02 ± 0.025"}]}]}
